# Tests used:
# in vivo = experiment: in vivo; parameters: species or system Balb/C mice; conditions: Balb/C, mouse, iv
# Description: DZ-1-Lys-DOTA-^68Ga (50 μCi) probe was injected into the tail vein of Balb/C mice (n=6, each about 20 g of body weight). Approximately 10 μL of blood from the contralateral tail vein was collected in capillary tubes at 2 min, 5 min, 15 min, 30 min, 1 h, 2 h and 4.5 h post probe injection. The capillaries were placed in pre-weighed tubes to measure the weight and radioactivity of the blood withdrawn. Radioactivity from each sample was measured by a gamma counter with radioactivity decay corrected to the time of probe injection, normalized for injected dose and blood weight, and expressed as percentage injected dose per gram blood (FIG. 2). Each animal was i.v. injected 50 μCi of the probe.
# DZ-1-Lys-DOTA-^177Lu (50 μCi) was injected into the tail vein of Balb/C mice (n=6, about 20 g). Approximately 10 μL of blood from the contralateral tail vein was collected in capillary tubes at 2 min, 5 min, 15 min, 30 min, 1 h, 2 h and 6 h post probe injection. The capillaries were placed in pre-weighed tubes to measure the weight and radioactivity of the blood withdrawn. Radioactivity from each sample was measured by a gamma counter with the radioactivity decay corrected to the time of probe injection, normalized for injected dose and blood weight, and expressed as percentage injected dose per gram blood.
# [1] = tested on: MDA-MB-231 breast cancer cells; experiment: Cytotoxicity study, CCK-8; conditions: for % cell viability: human
# Description: The MDA-MB-231 breast cancer cells were pre-seeded into 96-well plates (10^4 cells/well), and placed in a 37° C., 5% CO2 incubator until the cells were fully attached. Serially diluted DZ-1-Lys-DOTA-^90Y (100 μL) was added to each well (7 concentrations diluted from 20 μCi in half), and 3 replicate wells for each concentration point. After 24 and 48 hours of treatment, the supernatant was discarded, and 10 μL of CCK-8 solution and 100 μL of medium were added to each well. The culture was continued for 1 h in the incubator, and the absorbance of each well at 450 nm was measured with a microplate reader.
# [2] = format: in vitro ADME, Bovine; conditions: for half-life (stability in serum): bovine
# Description: DZ-1-Lys-DOTA-^68Ga was incubated with Fetal Bovine Serum (FBS) at 37° C., and the stability of DZ-1-Lys-DOTA-^68Ga was analyzed by radio-TLC with 0.1M citric acid as eluent.
# The % purity is a marker for stability, with a higher purity indicating a higher stability.
# The DZ-1-Lys-DOTA-^177Lu was incubated with Fetal Bovine Serum (FBS) at 37° C., and the probe was analyzed by radio-TLC with 0.1M citric acid as eluent (see FIG. 3). Stability is determined by the percentage of the labeled compound (radiochemical purity).
# The DZ-1-Lys-DOTA-^90Y was incubated with Fetal Bovine Serum (FBS) (V:V=2:1) at 37° C. and the probe was analyzed by radio-TLC with 0.1M citric acid as eluent.
# [3] = 50 uCi, total radioactivity, Normalized radioactivity in blood (% ID/g)
smiles,measurement,setting,value
"CC1(C)C(/C=C/C2=C(Cl)C(=C/C=C3/N(CCCCCC(=O)NCCCCC(NC(=O)CN4CCN(CC(=O)O)CCN(CC(=O)O)CCN(CC(=O)O)CC4)C(=O)O)c4ccccc4C3(C)C)/CCC2)=[N+](CCCCS(=O)(=O)[O-])c2ccccc21 (single isomer, unassigned) [DZ-1-Lys-DOTA-68Ga, metal not drawn]",elimination half-life for blood clearance (T1/2),in vivo,30 min
same,Normalized radioactivity in blood (% ID/g),"in vivo; 50 uCi, 0.25 h",1.13 % ID/g
same,Normalized radioactivity in blood (% ID/g),"in vivo; 50 uCi, 0.5 h",0.97 % ID/g
same,Normalized radioactivity in blood (% ID/g),"in vivo; 50 uCi, 1 h",0.80 % ID/g
same,Normalized radioactivity in blood (% ID/g),"in vivo; 50 uCi, 2 h",0.70 % ID/g
same,tissue uptake at 2 min,in vivo; [3],1.83 %ID/g
same,tissue uptake at 5 min,in vivo; [3],1.44 %ID/g
same,tissue uptake at 4.5 h,in vivo; [3],0.5 %ID/g
same,tissue uptake,"in vivo; 50 uCi, total radioactivity, normalized radioactivity in blood (D/g)",~1.8 %ID/g
"CC1(C)C(/C=C/C2=C(Cl)C(=C/C=C3/N(CCCCCC(=O)NCCCCC(NC(=O)CN4CCN(CC(=O)O)CCN(CC(=O)O)CCN(CC(=O)O)CC4)C(=O)O)c4ccccc4C3(C)C)/CCC2)=[N+](CCCCS(=O)(=O)[O-])c2ccccc21 (single isomer, unassigned) [DZ-1-Lys-DOTA-90Y, metal not drawn]",breast cancer cells caused to die,"[1]; 20 μCi, within 48 hours",80%
same,cancer cell killing compared to free 90Y (in words),"[1]; 48 h, 20 microCi",kills MDA-MB-231 triple-negative breast cancer cells more effectively
same,% cell viability,"[1]; 48 h, 0.3125 μCi",43.92%
same,% cell viability,"[1]; 48 h, 0.625 μCi",42.08%
same,% cell viability,"[1]; 48 h, 1.25 μCi",41.50%
same,% cell viability,"[1]; 48 h, 2.5 μCi",39.63%
same,% cell viability,"[1]; 48 h, 5 μCi",35.57%
same,% cell viability,"[1]; 48 h, 10 μCi",35.46%
same,% cell viability,"[1]; 48 h, 20 μCi",19.21%
same,retention (radiochemical purity),[2],about 30%
same,half-life (stability in serum),[2],about 240 min
"CC1(C)C(/C=C/C2=C(Cl)C(=C/C=C3/N(CCCCCC(=O)NCCCCC(NC(=O)CN4CCN(CC(=O)O)CCN(CC(=O)O)CCN(CC(=O)O)CC4)C(=O)O)c4ccccc4C3(C)C)/CCC2)=[N+](CCCCS(=O)(=O)[O-])c2ccccc21 (single isomer, unassigned) [DZ-1-Lys-DOTA-177Lu, metal not drawn]",elimination half-life for blood clearance (T1/2),in vivo,15 min
same,Normalized radioactivity in blood (% ID/g),"in vivo; 50 uCi, 2 min",1.26 % ID/g
same,Normalized radioactivity in blood (% ID/g),"in vivo; 50 uCi, 5 min",0.86 % ID/g
same,Normalized radioactivity in blood (% ID/g),"in vivo; 50 uCi, 0.25 h",0.51 % ID/g
same,Normalized radioactivity in blood (% ID/g),"in vivo; 50 uCi, 0.5 h",0.43 % ID/g
same,Normalized radioactivity in blood (% ID/g),"in vivo; 50 uCi, 1 h",0.36 % ID/g
same,Normalized radioactivity in blood (% ID/g),"in vivo; 50 uCi, 2 h",0.34 % ID/g
same,tissue uptake at 6 h,in vivo; [3],0.23 %ID/g
same,retention (radiochemical purity),[2],about 30%
same,half-life (stability in serum),[2],about 700 min

# Reference: US20240307560A1, “HEPTAMETHINE CARBOCYANINE DYE-DOTA CONJUGATES COMPLEXED WITH LUTETIUM-177, YTTRIUM-90, OR GALLIUM-68, AND THEIR USES FOR IMAGE-GUIDED RADIOTHERAPY” (priority 2020, published 2024)
